In patent US20190106487A1 (Sanofi, published 2019):
Numbering of substitutions follows the chain as printed.

B1: P013.S.01.B.C02 (antibody, V domains shown)
VH: QSLEESGGDLVKPGASLTLTCTASGFSFSSSHYMCWVRQAPGKGLEWIACIYAGSSGNTYYANWAKGRFTISKTSSTTVTLQMTSLTAADTATYFCARVDASSSGSWDLWGPGTLVTVSS
VL: AIEMTQTPFSVSAAVGGTVTINCQASESIYSNLAWYQQILGQPPKLLIYAASLLASGVPSRFKGSGSGTEYTLTISGVQSADAATYYCQSASYSTGPDWTFGGGTEVVVE
notes: rabbit monoclonal antibody; also called P013.A.00014.C10
B2: P013.S.02.B.E03 (antibody, V domains shown)
VH: QSVEESGGRLVTPGTPLTLTCTVSGFSLSDYYMGWVRQAPGKGLEWIGTIDGGGSTYYASWAKGRFTVSKTSTTVDLTITSPTTEDTAIYFCARNYYAGLSDVFFGWWGQGTLVTVSS
VL: DVVMTQTPASVEAAVGGTVTIMCQASETIYSGLAWYQQKPGQPPKLLIYYTSSLASGVPSRFKGSGSGTEFTLTISDLESADAATYYCQTYYDSEGRSYGYNSFGGGTEVVVK
notes: rabbit monoclonal antibody; also called P013.A.00091.A10
B3: P013.S.01.B.G05 (antibody, V domains shown)
VH: LEQSGGGAEGGLVKPGGSLELCCKASGFSLSSAYWICWVRQAPGKGLEWVGCIYADSSSITYYASWVNGRFTLSRDIDQSTGCLQLNSLTAADTAMYYCARDYGGSGYNFNLWGQGTLVTVSS
VL: ALVMTQTPSPVSAAVGGTVTISCQASEDIYSNLAWYQQKRGQPPKLLIYYASTLASGVPSRFSGSGSGTEFTLTISGLQSDDAATYYCLGVCTYINANGWDNAFGGGTEVVVK
notes: rabbit monoclonal antibody; also called P013.A.00088.C10
B4: P013.S.01.B.B02 (antibody, V domains shown)
VH: LEQSGGGAEGGLVKPGGSLELCCKASGFSLSSSYWICWVRQAPGKGLEWIGCIYTGSSGITYYASWVNGRFTLSRDIDQSTGCLQLNSLTAADTAMYYCAKDGPSTLFNFWGQGTLVTVSS
VL: ALVMTQTPSPVSAAVGGTVTINCQASEDIYSNLAWFQQKPGQPPKLLIYRASTLASGVPSRFKGSGSGTEFTLTISGLQSDDAATYYCLGVYTYPSADNAFGGGTEVVVR
notes: rabbit monoclonal antibody; also called P013.A.00014.B03
B5: P013.S.01.B.D06 (antibody, V domains shown)
VH: QSLEESGGDLVKPGASLTLTCTASGFSFSSSYYMCWVRQAPGKGLEWIACIYAGSSGVTYYASWAKGRFTISDTSSTTVTLQMTSLTAADTATYFCASETDGNYFNLWGPGTLVTVSS
VL: B4 VL with K63S, P95S, S96T, A97D, D98I, N99H, R110K
notes: rabbit monoclonal antibody; also called P013.A.00029.D02
B6: P013.S.02.B.C04 (antibody, V domains shown)
VH: QQLEQSGGGLVKPGGSLELCCKASGFSLSSSYWICWVRQAPGKGLEWIGCIYAGSSGSTYYANWVNGRFTLSRDIDQSTGCLQLSSLTAADTAMYYCARSIVDFSSGWGDLWGQGTLVTVSS
VL: ALVMTQTPSPVSAAVGGTVTINCQASEDIYSNLAWYQQKPGQPPKLLMYGVSTLASGVPSRFSDSGSGTEFTLTISGLQSDDAATYYCLGVYTYISDVYYTFGGGTEVVVK
notes: rabbit monoclonal antibody; also called P013.A.00085.H07
B7: P013.S.01.B.G06 (antibody, V domains shown)
VH: QSLEESGGRLVTPGTPLTLTCTASGFTISSYYMSWVRQAPGKGLEWIGGIATDGNTYYANWAKGRFTVSRTSTTVDLKVTSPTAEDTATYFCARGGPAYSRGTHYAMDLWGPGTLVTVSS
VL: AYDMTQTPASVEVAVGGTVTIKCQASQSIYIYLAWYQQKPGQRPKQLIYDASKLASGVPSRFSGSGSGTEFTLTISGVESADAATYYCQQGATIWNVDNPFGGGTEVVVK
notes: rabbit monoclonal antibody; also called P013.A.00085.H05
B8: P013.S.01.B.H04 (antibody, V domains shown)
VH: QSVEESGGRLVTPGTPLTLTCTVSGFSLDSYAMGWVRQAPGKGLEWIGIINSYGSIYYASWAKGRFTISKTSTTVDLKMTSLTTEDTATYFCARSAYSNNGDRLHLWGQGTLVTVSS
VL: DIVMTQTPSPVSGAVGGTVTIKCQASEDIYSNLAWYQQKPGQPPKLLIYYVSTLESGVPSRFKGSRSGTDYTLTISDLESADAATYYCQCTEGGSGSDYTFGGGTEVVVK
notes: rabbit monoclonal antibody; also called P013.A.00014.G05
B9: P013.S.01.B.C05 (antibody, V domains shown)
VH: QSVEESGGRLVTPGTPLTLTCTVSGFSLSNYAMSWVRQAPGKGLEYIGIIDSGGSAYYATWARGRFTISRTSTTVDLKMTSPTTEDTATYFCARGGPAYSTNTHYTLDLWGPGTLVTVSS
VL: AFEMTQTPSSVSEPVGGTVTIKCQASQSIYNYLSWYQQKPGQPPKLLIYDASELASGVPSRFKGSGSGTEFTLTISGVQSDDAATYYCQQGATTYNIENVFGGGTEVVVK
notes: rabbit monoclonal antibody; also called P013.A.00045.E06

biological target: T1, rhIL-1RAcP/Fc Chimera (human, UniProt Q9NPH3 21-359); assay: ELISA, recombinant purified mAb
T1 construct: also called P013_03; P013-03
T1 sequence (looked up): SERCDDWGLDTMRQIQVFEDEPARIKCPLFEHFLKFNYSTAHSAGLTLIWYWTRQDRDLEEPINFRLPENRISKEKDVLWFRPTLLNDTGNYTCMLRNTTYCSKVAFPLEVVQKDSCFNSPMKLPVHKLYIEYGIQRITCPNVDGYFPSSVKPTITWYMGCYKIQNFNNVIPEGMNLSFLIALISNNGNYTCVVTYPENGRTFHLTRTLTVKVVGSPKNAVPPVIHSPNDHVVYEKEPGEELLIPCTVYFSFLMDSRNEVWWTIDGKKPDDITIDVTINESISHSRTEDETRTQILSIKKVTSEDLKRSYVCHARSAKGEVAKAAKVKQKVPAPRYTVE

EC50 [µg/mL]	Binder
0.105	B1
0.363	B2
0.817	B3
0.175	B4
0.053	B5
0.758	B6
0.115	B7
0.062	B8
0.038	B9

biological target: T2, human IL-1RAcP on 293T/17-FR cells (human, UniProt Q9NPH3 21-570); assay: cell-based or functional assay
T2 sequence (looked up): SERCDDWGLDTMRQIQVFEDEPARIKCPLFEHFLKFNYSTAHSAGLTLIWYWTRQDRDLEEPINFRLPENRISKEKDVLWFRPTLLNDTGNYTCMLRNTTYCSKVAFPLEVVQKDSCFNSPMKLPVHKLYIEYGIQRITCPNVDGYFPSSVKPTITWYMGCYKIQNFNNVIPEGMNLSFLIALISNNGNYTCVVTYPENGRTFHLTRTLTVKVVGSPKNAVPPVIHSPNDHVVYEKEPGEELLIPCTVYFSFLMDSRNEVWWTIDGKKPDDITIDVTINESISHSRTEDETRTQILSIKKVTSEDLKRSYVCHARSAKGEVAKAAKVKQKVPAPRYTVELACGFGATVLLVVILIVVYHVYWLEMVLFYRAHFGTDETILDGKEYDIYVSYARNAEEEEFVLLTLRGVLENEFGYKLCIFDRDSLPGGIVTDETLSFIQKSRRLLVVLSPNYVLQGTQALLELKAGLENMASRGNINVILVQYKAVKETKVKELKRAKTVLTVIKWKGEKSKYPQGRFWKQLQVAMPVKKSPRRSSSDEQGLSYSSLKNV

functional reporter gene assay (% inhibition), 0.04 µg/mL mAb [%]	functional reporter gene assay (% inhibition), 0.2 µg/mL mAb [%]	functional reporter gene assay (% inhibition), 1 µg/mL mAb [%]	functional reporter gene assay (% inhibition), 5 µg/mL mAb [%]	primary supernatant functional assay (% inh.), NF-kB luciferase reporter [%]	Binder
18	78	99	98	82	B1
6	12	16	25	37	B2
21	50	82	93	81	B3
75	84	94	98	97	B4
24	66	96	97	80	B5
29	26	40	91	65	B6
69	49	94	96	89	B7
10	49	49	54	35	B8
67	74	87	95	27	B9

biological target: T1, rhIL-1RAcP/Fc Chimera; assay: ELISA, primary supernatant, coated hu-IL-1RAcP-Fc
Excerpt: Microtiter plates were coated IL-1RACP and/or IL12Rβ1 protein (recombinant Fc chimeric conjugates of human IL-1RACP or IL12Rβ1). After a blocking process, specific antibodies from B-cell supernatants bind to the targets and are then detected by a POD-labeled anti-rabbit IgG antibody. The IL12Rβ1 binding was used as a counterscreen. IL-1RACP protein was tagged with a linker, huFc and His like the IL12Rβ1 protein. Antibodies which bind to the tag were positive in both assays, whereas antigen specific antibodies just bound to IL-1RACP and not to IL12Rβ1.
12.5 μL 0.5 μg/mL IL-1RACP protein in PBS was transferred to a microtiter plate, incubated and washed 3× with Wash Buffer. 90 μL Block Buffer was added to each well, incubated and washed. 12.5 μl Standard Antibody (rabbit mAb against IL-1RAcP, anti IL12Rbeta1 antibody: IL-12Rbeta1 antibody; GeneTex; Cat. No. GTX103917) or sample diluted in ELISA buffer was added, incubated and washed. 12.5 μl 1:5000 POD-Antibody (Anti-rabbit IgG, peroxidase-linked species-specific Fab2 fragment (from donkey) (ECL); assay dilution: 1:5000) in Elisa Buffer was added, incubated and washed. 15 μl TMB was added and 15 μl HCl was added after sufficient development. Absorbance (Optical Density O.D.) was read at 450 nm/620 nm.

hu-IL1RaP ELISA (OD)	Binder
3.4	B1
3.3	B2
3.3	B3
3.6	B4
3.7	B5
2.7	B6
3.8	B7
3.7	B8
2.5	B9
